Measured values taken from article PMC8325310.
Where “and” joins values, the source holds several entries; their conditions need not be identical. Equal entries are not always repeated.

What was measured:
NT*-Bri2 BRICHOS (human) = assay: SEC; IMAC-purified NT*-Bri2 BRICHOS concentrated to 3.4 mg/mL, Superdex 200 26/600, 20 mM NaPi pH 8.0 with 0.2 mM EDTA; four peaks resolved (monomer, dimer, tetramer, higher oligomers)
[1] = target: recombinant human (rh) Bri2 BRICHOS (human); assay: SDS-PAGE under reducing and non-reducing conditions; SEC-isolated rh Bri2 BRICHOS species analysed by SDS-PAGE, reducing and non-reducing
[2] = target: recombinant human (rh) Bri2 BRICHOS (human); assay: SEC; Bri2 BRICHOS species after thrombin cleavage and reverse IMAC, Superdex 200 26/600 (oligomer, tetramer, dimer) or Superdex 75 26/600 (monomer), 20 mM NaPi pH 8.0 with 0.2 mM EDTA

Sequence of NT*-Bri2 BRICHOS (Q9Y287 132-236): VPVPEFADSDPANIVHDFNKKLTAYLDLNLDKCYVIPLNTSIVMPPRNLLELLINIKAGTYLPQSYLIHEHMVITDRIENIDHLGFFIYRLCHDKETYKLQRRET

Q: How did the stoichiometry N (NT*-Bri2 BRICHOS (human)) turn out when NT*-Bri2 BRICHOS (domain or fragment) was run?
A: 2 and 4

Q: With “recombinant human (rh) Bri2 BRICHOS (domain or fragment)” as the substance, how does the stoichiometry N [1] read?
A: 6

Q: What about the stoichiometry N [2] of the same substance?
A: 2 and 4
